In this assay the target is CohE-CBM(C63S)-ybbR (Ruminococcus flavefaciens). In words: ITC.

In the case of “ybbR-CBM(C63S)-ScaB-XDoc (domain or fragment)”, the Kd (usually the constant that tells how readily two partners part at equilibrium) turned out to be 149 nM.

(Values after PMC6939381.)
